Test results as given in US20100169992A1 (U3 PHARMA, published 2010).

B1: anti-FGFR4 antibody 10F10 (antibody, V domains shown)
VH: EVQLKESGPGLVQPSQTLSLTCTVSGFSLTDYSVHWVRQPPGKGLEWMGVVWSSGSTAYNSALKSRLRITRDTSKSQAFLKMNSLQTEDTAIYYCTRPRYSSWFVYWGQGTLVTVSS
VL: DTVLTQSPALAVSLGQRVTISCRASKSVSTFIHWYQQKSGQQPKLLIYSASNTESGPSRFSGSGSGTDFTLTIDPVEADDIANYYCQQSNELPWTFGGGTKLELKR
notes: Rat monoclonal antibody from a hybridoma (rats immunised with FGFR4-ECD-GST)
B2: anti-FGFR4 antibody 9A5 (antibody, V domains shown)
VH: QVQLRESGPGLVQPSQTLSLTCTVSGFSLTFYHVSWVRQPPGKGLEWMGVIWTGGSTTYNSLLKSRLTISRDTSKSQVFLKMNSLQTEDTATYYCARGGGDRGYFAFWGPGTMVTVSS
VL: NTVMTQSPTSMFTSVGDRVTMSCKASQNVGINVGWYQQKTGQSPKRLIYWASNRDTGVPDRFTGSGSGTDFTLTISNMQAEDPAIYYCLQHNSYPWTFGGGTKLELKR
notes: Rat monoclonal antibody from a hybridoma

Target: T1, FGFR4 expressed on cells (L6-FGFR4 myoblasts; ZR-75-1 breast cancer cells) (UniProt P22455 22-802, limits assumed)
T1 construct: whole, on cells; also called L6-FGFR4 cells; FGFR4-transfected L6 myoblasts
T1 sequence (P22455 22-802 limits assumed): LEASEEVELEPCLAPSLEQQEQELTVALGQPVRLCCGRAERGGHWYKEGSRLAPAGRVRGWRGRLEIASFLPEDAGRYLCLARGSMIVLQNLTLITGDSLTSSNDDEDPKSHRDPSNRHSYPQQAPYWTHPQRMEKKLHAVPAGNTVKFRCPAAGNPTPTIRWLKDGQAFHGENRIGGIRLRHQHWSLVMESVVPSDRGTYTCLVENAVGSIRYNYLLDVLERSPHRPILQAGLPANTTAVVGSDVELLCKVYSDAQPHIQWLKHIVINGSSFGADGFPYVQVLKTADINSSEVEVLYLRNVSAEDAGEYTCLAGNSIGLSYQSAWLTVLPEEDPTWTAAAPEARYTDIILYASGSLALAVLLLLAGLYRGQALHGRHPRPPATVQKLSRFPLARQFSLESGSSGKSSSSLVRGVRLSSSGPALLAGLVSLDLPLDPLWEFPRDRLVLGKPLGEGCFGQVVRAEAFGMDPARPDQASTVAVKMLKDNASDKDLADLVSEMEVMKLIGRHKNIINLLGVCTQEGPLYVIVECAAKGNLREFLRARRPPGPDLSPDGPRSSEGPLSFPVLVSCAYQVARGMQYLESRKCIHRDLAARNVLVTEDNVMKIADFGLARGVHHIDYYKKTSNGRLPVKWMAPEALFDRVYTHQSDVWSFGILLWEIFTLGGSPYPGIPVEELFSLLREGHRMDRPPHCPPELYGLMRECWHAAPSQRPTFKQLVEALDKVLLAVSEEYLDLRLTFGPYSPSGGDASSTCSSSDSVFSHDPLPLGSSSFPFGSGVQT
Test: FACS Scatchard on L6-FGFR4 cells, anti-rat-PE detection
Description: L6-FGFR4 cells were harvested by incubation with 10 mM EDTA in PBS and resuspended at 6 million cells per ml in FACS buffer (PBS pH 7.4, 3% FCS, 0.1% NaN₃). In a round-bottom microtiter plate, 100 μl of cell suspension were added to 100 μl of antibody solution containing antibodies 10F10 or 9A5 at concentrations between 31.25 and 0.01 μg/ml in FACS buffer. Antibody binding was allowed to proceed for 2 hours ice. Then, cells were washed twice with 250 μl FACS buffer per well, and resuspended in 200 μl of secondary antibody (anti-rat-PE; Jackson), diluted 1:50 in FACS buffer. After 45 minutes of incubation, cells were again washed twice in FACS buffer, then resuspended in […] of PBS for FACS analysis. Analysis was carried out on a Beckman-Coulter FACS. To determine the apparent affinity constant KDapp, mean fluorescence values were plotted against the ratio of mean fluorescence and the corresponding antibody contration ([M]). The calculated KDapp resulted from the inverse slope of the straight line (FIG. 2).

Row | Binder | binding result
1 | B1 | binds
2 | B2 | binds
